Source: US20240100162A1 (Amgen, published 2024)

Molecular target: MAGE-B2 peptide-MHC (…/HLA-A*02:01) on cells (human)
Test: cell-based or functional assay

B1: TCR1 (TCR, V domains shown)
V domain 1: KQEVTQIPAALSVPEGENLVLNCSFTDSAIYNLQWFRQDPGKGLTSLLLIQSSQREQTSGRLNASLDKSSGRSTLYIAASQPGDSATYLCAAMKTSYDKVIFGPGTSLSVIP
V domain 2: GEEVAQTPKHLVRGEGQKAKLYCAPIKGHSYVFWYQQVLKNEFKFLISFQNENVFDETGMPKERFSAKCLPNSPCSLEIQATKLEDSAVYFCASSQGQGGYGYTFGSGTRLTVVE
- EC90 (peptide concentration), T2/peptide cytotoxicity assay: ≤ 10 nM

B2: TCR2 (TCR, V domains shown)
V domain 1: QKEVEQNSGPLSVPEGAIASLNCTYSDRGSQSFFWYRQYSGKSPELIMSIYSNGDKEDGRFTAQLNKASQYVSLLIRDSQPSDSATYLCAVNIPFSNSGGYQKVTFGTGTKLQVIP
V domain 2: NAGVTQTPKFRVLKTGQSMTLLCAQDMNHEYMYWYRQDPGMGLRLIHYSVGEGTTAKGEVPDGYNVSRLKKQNFLLGLESAAPSQTSVYFCASRHPGQYNQPQHFGDGTRLSILE
- E:T EC50, cytotoxicity against MAGE-B2+ MAGE-A4+ cancer cell lines: 0.01 E:T ratio
- E:T EC50, cytotoxicity against MAGE-B2+ MAGE-A4- cancer cell lines: ~0.07 E:T ratio
- EC90 (peptide concentration), T2/peptide cytotoxicity assay: ≤ 10 nM

B3: TCR3 (TCR, V domains shown)
V domain 1: AQKVTQAQTEISVVEKEDVTLDCVYETRDTTYYLFWYKQPPSGELVFLIRRNSFDEQNEISGRYSWNFQKSTSSFNFTITASQVVDSAVYFCALSVLRMDSSYKLIFGSGTRLLVRP
V domain 2: NAGVTQTPKFRVLKTGQSMTLLCAQDMNHEYMYWYRQDPGMGLRLIHYSVGEGTTAKGEVPDGYNVSRLKKQNFLLGLESAAPSQTSVYFCASSLQGAGQPQHFGDGTRLSILE
- EC90 (peptide concentration), T2/peptide cytotoxicity assay: ≤ 10 nM
